The values that follow are results of earlier work, collected in paper PMC7990104.

pKd: −log10 of the molar value. Like-named read-outs stand apart in the source and are kept apart here.

Data set [1] deals with PYL3 (Arabidopsis thaliana) (UniProt Q9SSM7).
Data set [2] has the same target. The source holds these as a separate data set.

For the substance PYL3 (from UniProt Q9SSM7), the pKd (usually the Kd on a negative log10 scale, so that one unit is a factor of ten) is 4.28 in data set [1] and 5.11 in data set [2].
